We go through 1 variant from IntAct's records for PubMed 34063696.

B1: BolA-like protein 3 (Homo sapiens), Q53S33 (parent)
chain: MAAWSPAAAAPLLRGIRGLPLHHRMFATQTEGELRVTQILKEKFPRATAIKVTDISGGCGAMYEIKIESEEFKEKRTVQQHQMVNQALKEEIKEMHGLRIFTSVPKR
partner: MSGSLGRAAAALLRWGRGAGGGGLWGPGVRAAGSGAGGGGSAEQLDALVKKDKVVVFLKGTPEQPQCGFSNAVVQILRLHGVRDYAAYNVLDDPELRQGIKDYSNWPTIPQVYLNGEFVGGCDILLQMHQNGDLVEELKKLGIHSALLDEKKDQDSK

Variants of B1 are the subject of this experiment. Conditions: with glrx5_human GLRX5, Q86SX6.
For the variant MAAWSPAAAAPLLRGIRGLPLHHRMFATQTEGELRVTQILKEKFPRATAIKVTDISGGYGAMYEIKIESEEFKEKRTVQQHQMVNQALKEEIKEMHGLRIFTSVPKR [C59Y], the “effect of a mutation on the interaction” value is recorded as “with no effect”.
